Measured values taken from patent publication US20250084173A1 (4B TECHNOLOGIES SUZHOU, published 2025).

Experiments:
[1] = biological target: T1, recombinant human TrkA ECD protein (human, UniProt P04629 33-423); assay: ELISA on recombinant TrkA ECD proteins (FIG. 1b)
T1 construct: extracellular domain; also called hTrkA-ECD-hFc; hTrkA; not shown: C-terminal human Fc tag (hFc)

[2] = biological target: T2, recombinant mouse TrkA ECD protein (mouse, UniProt Q3UFB7 34-420); assay: ELISA on recombinant TrkA ECD proteins (FIG. 1b)
T2 construct: extracellular domain; also called mTrkA-ECD-hFc; murine TrkA; not shown: C-terminal human Fc tag (hFc)
T2 sequence (Q3UFB7 34-420): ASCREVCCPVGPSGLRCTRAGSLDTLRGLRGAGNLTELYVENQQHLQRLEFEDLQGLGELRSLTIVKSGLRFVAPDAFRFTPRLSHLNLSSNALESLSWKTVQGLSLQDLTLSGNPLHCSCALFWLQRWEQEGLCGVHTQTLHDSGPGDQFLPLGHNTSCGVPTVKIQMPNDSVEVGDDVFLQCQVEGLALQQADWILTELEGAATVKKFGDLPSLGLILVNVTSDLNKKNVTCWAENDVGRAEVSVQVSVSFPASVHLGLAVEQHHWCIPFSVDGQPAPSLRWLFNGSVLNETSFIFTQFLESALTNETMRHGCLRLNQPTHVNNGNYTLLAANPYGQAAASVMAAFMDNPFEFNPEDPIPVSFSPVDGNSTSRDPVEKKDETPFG

T1 sequence (P04629 33-423): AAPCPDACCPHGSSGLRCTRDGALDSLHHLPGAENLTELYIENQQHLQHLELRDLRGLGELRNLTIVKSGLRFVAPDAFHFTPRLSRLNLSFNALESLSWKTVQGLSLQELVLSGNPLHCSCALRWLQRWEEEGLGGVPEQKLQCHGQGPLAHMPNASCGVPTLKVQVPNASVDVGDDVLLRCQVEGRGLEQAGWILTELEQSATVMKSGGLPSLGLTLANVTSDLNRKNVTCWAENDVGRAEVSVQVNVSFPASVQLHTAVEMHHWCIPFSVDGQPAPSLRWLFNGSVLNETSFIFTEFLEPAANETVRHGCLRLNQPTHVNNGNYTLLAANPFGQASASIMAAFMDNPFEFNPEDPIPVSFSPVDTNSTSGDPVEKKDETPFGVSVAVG

B1: 27A6 (antibody, mouse IgG1, V domains shown)
VH: QVQLQQSGAELMEPGASVKISCKATGYTFSRYWIEWVQQRPGHGLEWIGEILPGSGTTNYNENFRGKATFTADTSSNTVYMQLISLTSEDSAVYYCARSYYGDFDAYWGQGTLVTVSA
VL: QAVVTQESALTTSPGETVTLTCRSSIGAVTTSNHANWVQEKPDHLFTGLIGGTNNRAPGVPARFSGSLIGDKAVLTITGAQTEDEAIYFCALWYSNHWVFGGGTKLTVLG
notes: also called TrkA antibody; TrkA antibody of the present application
- binding result [1]: binds
- binding result [2]: binds
